Results on 3 molecules are retold here after article PMC5763148.

What is called Kd is the constant that tells how readily two partners part at equilibrium.

Assay in all cases: SPR
For orientation: In SPR one partner is held on a chip, and binding of the other changes the refractive index at the surface.

Data set [1] concerns the target human CCL17 (hCCL17, TARC) (Homo sapiens, UniProt Q92583 24-94).
Data set [2] deals with T1, murine CCL17 (mCCL17, TARC) (Mus musculus, UniProt Q9WUZ6 24-93).
T1 sequence: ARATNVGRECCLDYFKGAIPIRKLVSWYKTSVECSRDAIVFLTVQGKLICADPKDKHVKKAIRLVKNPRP

Data set [3] concerns the target T1, murine CCL17 (mCCL17, TARC). The source holds these as a separate data set.

Sequence of human CCL17 (hCCL17, TARC) (Q92583 24-94): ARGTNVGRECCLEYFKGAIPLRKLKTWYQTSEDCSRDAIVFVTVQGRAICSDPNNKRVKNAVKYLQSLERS

GGGAGGACGAUGCGGGAGCAGCAUUUGUGGUUUCCCGAUCGCUUCCC (structured_RNA, 2'-fluoro pyrimidines) [MF35.47]: in data set [1], the binding result is on record as “no binding”. In data set [2], this molecule showed a Kd of 7.5 ± 1.5 nM.

For the molecule GGGUCGUCGCGGGUUGGCUCGUAGAUCGGGCCGGUACAGACGACCC (structured_RNA, 2'-fluoro pyrimidines) [MF11.46], the binding result in data set [1] was “no binding”. The same molecule displayed a Kd in data set [2] of 0.9 ± 0.1 nM.

For the molecule GGGGGCGUGUAUGCCAGACCUGCCGAUGUCCUUAAGGUCGACGCUGU (structured_RNA, 2'-fluoro pyrimidines) [control aptamer (scrambled MF35.47)], in data set [3], the binding result is “no binding”.
